According to US12559749B2, “Methods of rescuing stop codons via genetic reassignment with ACE-tRNA” (UNIVERSITY OF IOWA RESEARCH FOUNDATION, priority 2017, dated 2026):

What was measured:
[1] = test system: native stop codons (TAA, TAG, TGA), 3′UTR ribosome density; experiment: Ribosome footprint profiling of transcriptome-wide 3′UTRs, HEK293 cells; type: cell-based, human
Source text: The question was raised whether ACE-tRNAs that show efficacious suppression of premature stop codons may also induce global readthrough of native stop codons. To address this potential “off target” suppression, a transcriptome-wide quantitative profile of actively engaged ribosomes on all cellular transcripts was obtained by generating libraries of ribosome footprints from HEK293 cells expressing exogenous ACE-tRNAs or a control mock plasmid (puc57GG). Streptomycin was removed from the growth media to prevent readthrough artifacts. For comparison, the ribosome footprint library was also generated from cells in the presence or absence of G418 (150 μM, 48 h). […] Only transcripts with a minimum threshold of 5 RPKM in the coding sequence and 0.5 RPKM in the 3′UTR in two replicate libraries were included for the quantitation comparison (254 transcripts in G418 and 495-748 transcripts in ACE-tRNAs). […] ACE-tRNAs examined here had no detectable change of 3′UTR ribosome density with the exception of ACE-tRNA Gln-UAA and Arg-UGA which induced approximately a 2-fold increase in 3′UTR ribosome density for the cognate stop codon complimentary to the ACE-tRNA anticodon. Understanding the biological significance of 2-fold readthrough of protein stops will require further study, but this effect is substantially lower compared to the 100- to 1000-fold suppression of PTC for the same ACE-tRNA.
Multiple in-frame stop codons are frequently found at the end of genes 37-39 and may cause a minor difference in overall 3′UTR ribosome density for ACE-tRNA and G418 treatment. Ribosome occupancy was examined at each nucleotide in the 3′UTR within a 60 nt region downstream of the stop codons. […] Reads were normalized per total million-mapped reads, compared against control cells, and reported as a log 2-fold change as in panel A. More than 5,200 transcripts were mapped to at least 1 footprint in the region of interest. […] Taken together, the ribosome profiling data argue that efficiency of native stop codon suppression by ACE-tRNAs is generally low, and markedly less than the level of PTC suppression.
Ribosome Footprint Profiling Library preparation. HEK293 cells transiently transfected with ACE-tRNAs and control plasmid (puc57GG) were grown in standard grown media in the absence of Pen-Strep for 48 h. Libraries were prepared as described^55, with a few modifications. Briefly, cells were rapidly cooled by addition of ice-cold PBS, lysed in lysis buffer (20 mM Tris-HCl/pH7.4, 150 mM NaCl, 5 mM MgCl2, 1 mM DTT, 1% (v/v) Triton X-100, and 25 U ml^−1 Turbo DNase I) for 10 min on ice, and triturated with ten times through a 26-G needle. […]

NanoLuc-TGA, TAA or TAG = type: cell-based, human; conditions: transiently transfected HEK293 cells; listed as Glychr19.t2

B1: Glychr19.trna2: top performing glycine ACE-tRNA UGA, SEQ ID NO: 53 (nucleic acid)
chain: GCGUUGGUGGUAUAGUGGUUAGCAUAGCUGCCUUCAAAGCAGUUGACCCGGGUUCGAUUCCCGGCCAACGCA
modifications: chemistry not given here
readthrough of native stop codons / effect on global translation termination ([1]; discussion of profiling data): no significant effect on global translation termination
ribosome occupancy in the early region of 3′UTR downstream of stop codons ([1]; per nucleotide, -35 to +65 nt): no observable change of ribosome occupancy
stop codon selectivity (UGA over UAA and UAG) (NanoLuc-TGA, TAA or TAG): selectively suppresses the UGA stop codon
